We go through 125 sequences from the supplement of paper PMC9112550, “Optimization of the antimicrobial peptide Bac7 by deep mutational scanning” (BMC Biology, 2022).

In the series the test system is Escherichia coli TOP10. Kind of series: shrunken log2 fold change of peptide-encoding DNA abundance (4.5 h post-induction vs induction); higher = less antimicrobial activity (less host growth inhibition). The note with it: time post-induction: 4.5 h; library: site-saturation at positions 5, 18, 19, 20.
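Note: peptides expressed intracellularly from a pBAD plasmid library in pooled LB shake-flask culture, induced with 0.3% L-arabinose, DNA abundance read by NGS, three biological replicates, DESeq2 with apeglm shrinkage.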

In the case of RRIRMRPPRLPRPRPRPDPQPRP, the “shrunken log2 fold change” value was 0.593.

Turning to RRIRQRPPRLPRPRPRPCWGPRP, the “shrunken log2 fold change” value was 0.0281. RRIRERPPRLPRPRPRPHACPRP: the “shrunken log2 fold change” value was determined as 0.013. On to RRIRFRPPRLPRPRPRPEAEPRP, for which the “shrunken log2 fold change” value came out at 0.684. Consider RRIRWRPPRLPRPRPRPDWMPRP, for which the “shrunken log2 fold change” value was 0.212.

For the sequence RRIRHRPPRLPRPRPRPAVPPRP, the “shrunken log2 fold change” value amounted to 0.0133. With RRIRMRPPRLPRPRPRPNHWPRP, the “shrunken log2 fold change” value worked out at 0.14. For the sequence RRIRPRPPRLPRPRPRPRHMPRP, the “shrunken log2 fold change” value was determined as 0.116. Turning to RRIRERPPRLPRPRPRPHICPRP, the “shrunken log2 fold change” value is 0.0721.

As for RRIRVRPPRLPRPRPRPVTHPRP, the “shrunken log2 fold change” value is -0.277. Take RRIRFRPPRLPRPRPRPYISPRP: the “shrunken log2 fold change” value was -0.295. With RRIRTRPPRLPRPRPRPQCRPRP, the “shrunken log2 fold change” value was -0.259. For the sequence RRIRVRPPRLPRPRPRPCITPRP, the “shrunken log2 fold change” value is -0.233. As to RRIRGRPPRLPRPRPRPRQWPRP, the “shrunken log2 fold change” value came out at 0.585. For the sequence RRIRIRPPRLPRPRPRPRMRPRP, the “shrunken log2 fold change” value was 0.791. The same measure for RRIRERPPRLPRPRPRPALHPRP: 0.247; for RRIRSRPPRLPRPRPRPWRVPRP: 0.108. For RRIRLRPPRLPRPRPRPDPRPRP, the “shrunken log2 fold change” value worked out at 0.603. Consider RRIRWRPPRLPRPRPRPTRVPRP, for which the “shrunken log2 fold change” value amounted to 0.825. For the sequence RRIRTRPPRLPRPRPRPPQIPRP, the “shrunken log2 fold change” value is 0.16. The same measure for RRIRIRPPRLPRPRPRPQECPRP: -0.0195; for RRIRERPPRLPRPRPRPIRYPRP: -0.00369. With RRIRERPPRLPRPRPRPSVHPRP, the “shrunken log2 fold change” value was -0.329. For RRIRFRPPRLPRPRPRPRFYPRP, the “shrunken log2 fold change” value was -0.0297. Consider RRIRFRPPRLPRPRPRPPFDPRP, for which the “shrunken log2 fold change” value was 0.188. For the sequence RRIRCRPPRLPRPRPRPEVGPRP, the “shrunken log2 fold change” value amounted to 0.555.

In the case of RRIRYRPPRLPRPRPRPRVNPRP, the “shrunken log2 fold change” value was 0.00364.

Regarding RRIRRRPPRLPRPRPRPAVGPRP, the “shrunken log2 fold change” value stood at 0.344. Consider RRIRDRPPRLPRPRPRPSWDPRP, for which the “shrunken log2 fold change” value was 0.199.

Turning to RRIRRRPPRLPRPRPRPKKYPRP, the “shrunken log2 fold change” value was -0.103. The same measure for RRIRYRPPRLPRPRPRPGNYPRP: -0.0361; for RRIRTRPPRLPRPRPRPSWCPRP: -0.322; for RRIRPRPPRLPRPRPRPFALPRP: 0.238. On to RRIRPRPPRLPRPRPRPEILPRP, for which the “shrunken log2 fold change” value worked out at 0.0928. As to RRIRWRPPRLPRPRPRPTFHPRP, the “shrunken log2 fold change” value was 0.00721. Take RRIRQRPPRLPRPRPRPDFEPRP: the “shrunken log2 fold change” value was 0.0209. As for RRIRDRPPRLPRPRPRPFFAPRP, the “shrunken log2 fold change” value was determined as 0.412. For the sequence RRIRCRPPRLPRPRPRPTCKPRP, the “shrunken log2 fold change” value was -0.184. Regarding RRIRFRPPRLPRPRPRPNMHPRP, the “shrunken log2 fold change” value is -0.377. The same measure for RRIRVRPPRLPRPRPRPKEAPRP: -0.0421. Consider RRIRLRPPRLPRPRPRPAEDPRP, for which the “shrunken log2 fold change” value was -0.00769. RRIRMRPPRLPRPRPRPFTHPRP: the “shrunken log2 fold change” value is -0.107.

With RRIRCRPPRLPRPRPRPGGIPRP, the “shrunken log2 fold change” value was -0.329.

In the case of RRIRRRPPRLPRPRPRPNSEPRP, the “shrunken log2 fold change” value was found to be 0.381. In the case of RRIRLRPPRLPRPRPRPFVTPRP, the “shrunken log2 fold change” value was -0.303.

Take RRIRDRPPRLPRPRPRPYPEPRP: the “shrunken log2 fold change” value is 0.0271. The result for RRIRLRPPRLPRPRPRPHMPPRP reads -0.222; that for RRIRCRPPRLPRPRPRPGAIPRP, -0.0334. With RRIRMRPPRLPRPRPRPSWPPRP, the “shrunken log2 fold change” value was found to be 0.144. RRIRHRPPRLPRPRPRPHTFPRP: the “shrunken log2 fold change” value was -0.386. As for RRIRERPPRLPRPRPRPECQPRP, the “shrunken log2 fold change” value is -0.0134.

For RRIRPRPPRLPRPRPRPKLIPRP, the “shrunken log2 fold change” value is -0.0783. With RRIRARPPRLPRPRPRPKIYPRP, the “shrunken log2 fold change” value is -0.161. The result for RRIRNRPPRLPRPRPRPQKIPRP reads -0.22; that for RRIRTRPPRLPRPRPRPDPKPRP, 0.113; that for RRIRMRPPRLPRPRPRPECVPRP, 2.97. The same measure for RRIRCRPPRLPRPRPRPISWPRP: -0.105; for RRIRDRPPRLPRPRPRPRRGPRP: 0.365. Turning to RRIRHRPPRLPRPRPRPASRPRP, the “shrunken log2 fold change” value stood at 0.103. Turning to RRIRARPPRLPRPRPRPQDPPRP, the “shrunken log2 fold change” value came out at 0.557.

Turning to RRIRWRPPRLPRPRPRPNFRPRP, the “shrunken log2 fold change” value stood at 0.298. For the sequence RRIRERPPRLPRPRPRPSNIPRP, the “shrunken log2 fold change” value was -0.662. Regarding RRIRHRPPRLPRPRPRPQYPPRP, the “shrunken log2 fold change” value was -0.161. RRIRCRPPRLPRPRPRPRAKPRP: the “shrunken log2 fold change” value was 0.26. RRIRTRPPRLPRPRPRPNAHPRP: the “shrunken log2 fold change” value was -0.102. On to RRIRERPPRLPRPRPRPDDSPRP, for which the “shrunken log2 fold change” value is -0.435. As for RRIRMRPPRLPRPRPRPMDEPRP, the “shrunken log2 fold change” value was 2.34. RRIRDRPPRLPRPRPRPMWVPRP: the “shrunken log2 fold change” value came to 0.179. Take RRIRFRPPRLPRPRPRPIHMPRP: the “shrunken log2 fold change” value was -0.491. The same measure for RRIRARPPRLPRPRPRPTPRPRP: 1.5. RRIRGRPPRLPRPRPRPVHRPRP: the “shrunken log2 fold change” value was -0.0492. Regarding RRIRHRPPRLPRPRPRPHFPPRP, the “shrunken log2 fold change” value is -0.324. The result for RRIRGRPPRLPRPRPRPDYYPRP reads -0.0926; that for RRIRIRPPRLPRPRPRPRNGPRP, 0.103.

Consider RRIRKRPPRLPRPRPRPGSVPRP, for which the “shrunken log2 fold change” value was found to be 0.162.

As for RRIRCRPPRLPRPRPRPEPVPRP, the “shrunken log2 fold change” value stood at 0.0937. The result for RRIRMRPPRLPRPRPRPKNPPRP reads 0.145; that for RRIRGRPPRLPRPRPRPKLRPRP, 0.675; that for RRIRDRPPRLPRPRPRPRKCPRP, -0.0114.

With RRIRYRPPRLPRPRPRPFWVPRP, the “shrunken log2 fold change” value was -0.0684. Turning to RRIRCRPPRLPRPRPRPGCAPRP, the “shrunken log2 fold change” value was found to be 0.593.

As to RRIRCRPPRLPRPRPRPCQWPRP, the “shrunken log2 fold change” value was -0.00783. The result for RRIRGRPPRLPRPRPRPEQAPRP reads 1.83; that for RRIRQRPPRLPRPRPRPYTLPRP, 0.0232. The same measure for RRIRHRPPRLPRPRPRPRLVPRP: -0.113. On to RRIRFRPPRLPRPRPRPIRNPRP, for which the “shrunken log2 fold change” value was -0.0537. Take RRIRGRPPRLPRPRPRPFIYPRP: the “shrunken log2 fold change” value came to 0.0217. Turning to RRIRPRPPRLPRPRPRPDFCPRP, the “shrunken log2 fold change” value was -0.0633. As to RRIRSRPPRLPRPRPRPCEKPRP, the “shrunken log2 fold change” value is -0.475. In the case of RRIRHRPPRLPRPRPRPRCHPRP, the “shrunken log2 fold change” value was -0.555. Take RRIRMRPPRLPRPRPRPEIHPRP: the “shrunken log2 fold change” value was 0.176. With RRIRFRPPRLPRPRPRPCHLPRP, the “shrunken log2 fold change” value is -0.0779.

As for RRIRHRPPRLPRPRPRPPYVPRP, the “shrunken log2 fold change” value was -0.0952. Turning to RRIRHRPPRLPRPRPRPPPDPRP, the “shrunken log2 fold change” value is 0.646. With RRIRRRPPRLPRPRPRPQWNPRP, the “shrunken log2 fold change” value was -0.153. RRIRKRPPRLPRPRPRPMKMPRP: the “shrunken log2 fold change” value stood at 0.473. Consider RRIRERPPRLPRPRPRPPFEPRP, for which the “shrunken log2 fold change” value is 0.363.

As to RRIRCRPPRLPRPRPRPWDTPRP, the “shrunken log2 fold change” value is -0.282.

RRIRSRPPRLPRPRPRPPALPRP: the “shrunken log2 fold change” value amounted to 0.453.

Consider RRIRRRPPRLPRPRPRPLIWPRP, for which the “shrunken log2 fold change” value stood at 0.192. With RRIRPRPPRLPRPRPRPDECPRP, the “shrunken log2 fold change” value is -0.041. For the sequence RRIRIRPPRLPRPRPRPSFCPRP, the “shrunken log2 fold change” value is -0.656. For RRIRCRPPRLPRPRPRPVVEPRP, the “shrunken log2 fold change” value was determined as 0.0964. RRIRHRPPRLPRPRPRPRALPRP: the “shrunken log2 fold change” value was 0.152. Turning to RRIRSRPPRLPRPRPRPNMEPRP, the “shrunken log2 fold change” value was -0.154. On to RRIRDRPPRLPRPRPRPLTMPRP, for which the “shrunken log2 fold change” value was found to be 0.188. On to RRIRLRPPRLPRPRPRPMFLPRP, for which the “shrunken log2 fold change” value is -0.0362.

Turning to RRIRLRPPRLPRPRPRPRWDPRP, the “shrunken log2 fold change” value amounted to 0.141.

With RRIRKRPPRLPRPRPRPMLGPRP, the “shrunken log2 fold change” value was found to be 0.00289.

For the sequence RRIRQRPPRLPRPRPRPDCEPRP, the “shrunken log2 fold change” value is -0.00144. Turning to RRIRFRPPRLPRPRPRPYLWPRP, the “shrunken log2 fold change” value was -0.309. With RRIRSRPPRLPRPRPRPRQYPRP, the “shrunken log2 fold change” value is -0.274. On to RRIRARPPRLPRPRPRPKSNPRP, for which the “shrunken log2 fold change” value worked out at 0.253.

In the case of RRIRYRPPRLPRPRPRPCRGPRP, the “shrunken log2 fold change” value is -0.157. For the sequence RRIRTRPPRLPRPRPRPWTCPRP, the “shrunken log2 fold change” value was -0.0449. Take RRIRHRPPRLPRPRPRPMHIPRP: the “shrunken log2 fold change” value is -1.93.

As for RRIRNRPPRLPRPRPRPKNDPRP, the “shrunken log2 fold change” value was -0.0949. The same measure for RRIRHRPPRLPRPRPRPKLSPRP: 0.0757; for RRIRFRPPRLPRPRPRPRTFPRP: -0.179; for RRIRKRPPRLPRPRPRPLFYPRP: -0.0645. RRIRQRPPRLPRPRPRPPSHPRP: the “shrunken log2 fold change” value is 0.0871. Turning to RRIRVRPPRLPRPRPRPHMYPRP, the “shrunken log2 fold change” value is -0.509. The same measure for RRIRGRPPRLPRPRPRPWNMPRP: -0.0271. As for RRIRYRPPRLPRPRPRPVDSPRP, the “shrunken log2 fold change” value stood at 0.0413. RRIRVRPPRLPRPRPRPWCTPRP: the “shrunken log2 fold change” value is 0.0234.
